{
  "source": "a protein production outcome set (Wang et al. 2014)",
  "data": [
    {"assay": "label from the status in PepcDB records", "values": [
      {"sequence": "MPINQPSGQIKLTNVSLVRLKKARKRFEVACYQNKVQDYRKGIEKDLDEVLQIHQVFMNVSKGLVANKEDLQKCFGTTNVDDVIEEIMHKGEIQLSEKERQLMLNKVNNEMLTIVSAKCINPVSKKRYPPTMIHKALQELKFSPVINKPAKLQALEAIKLLVSKQIIPIVRAKMKVKVAISEPSRQPELIEKISKLIASSPGESTKPELDPWTCTGLIDPVNYRDLMTLCDKKGTVQVLDMAVIDNTTHN", "protein production": "failed"},
      {"sequence": "MPINTPENISDNTSETSPELLHFNQLNLPPALLTRLDEIGYQQMTPVQSLSLPVILNNTDAVVRADTGSGKTTAFALTLLAKLEAKSFSPQALVLCPTRELAHQVADEVRKLAKSMLNIKILTLCGGEPSRIQTNSLEHGAHVLVGTPGRVLDHLEQRNVDLSMLTTLVLDEADRMLEMGFQDSLNAIVKHIPKTRQTLLFSATYPKNIAALAEQVTTKARNIEAIQEQAKPQIEQLFYAMNNEDSAQLVMNLLGDHQPENCLVFCNTKNEVKDIFNTLRANKFSVLALHGELEQKDRDQAIIQFSNGSARVLIATDVASRGLDIAELDLVISVNMAHDLDTHTHRIGRTGRAGKEGVAITLIAEKDDYKMRLLEDTFAEPIQVKPAPALSNNRPLKANMSTIQVSGGKKDKLRPGDIVGALTKDNVLSADDIGKIKLESTFGFVAVNSRLAKHALGLINNNKIKGKKFRAKVL", "protein production": "failed"},
      {"sequence": "MPIRGFHYRGDEAIYPASVVKLFYLVAALEWLQQGMIQPSAELDRALRDMIVDSSNDATGYIVDLLSGTTSGPELGDGPFKTWQFQRNIVNRYYQSLMWPELQPINVNQKTWGDGPYGRERAFYGPEFENRNKLTTNATARLLHAIAGGVAVSPSASQRMLNLLNRPFDPRSLAEDPENQVTGFLGQDLPQGSQLWSKAGWMSRVRHDAAYLEIPGLPPHLLVAFTEGKEHANNEAILPFIAQQVRQQLQPALEHHHHHH", "protein production": "failed"},
      {"sequence": "MPITSSSETFASFFNDWLCRHRQFVQQLAHLADETTIVTPIEEESLVSNFLSHYLQYYEEKSVAMSVAGDDIYDFFSPPWLSSYEKLILWIGGFKPGMVFKLITTSVNDLTSHQIDQLESIRLETKRRERDLMRRFALLQQSVGDPLLMVPFRRIGVLRLGEGEQPEMEDAMEVLKVEMIKAMKNADQLRCVTVGKVVEVLNPRQSIKLLRAAGEFYLRLRDLGV", "protein production": "failed"},
      {"sequence": "MPKERVDVLAYKQGLFNTREQAKRGVMAGLVVNVINGERYDKPGEKIDEATELKLKGDKLKYVSRGGLKLEKALKVFVISVDGQITLDIGASTGGFTDVMLQNGAQLVYAVDVGTNQLVWKLRQDERVCSMEQYNFRYAEPSDFERGQPTFASIDVSFISLNLILPALSKILTDGGQVVALIKPQFEAGREQIGKHGIVKDKSVHETVLETVTTFATNYGFTVKELDFSPIQGGHGNIEFLAYLEKSAQAQNQVLTKIKSIVEQAHKEFKKNEET", "protein production": "not failed"},
      {"sequence": "MPKKPLIDQLHHEDSWRLFRILAEFVEGFETLSELQVPLVSVFGSARFGEGHPAYEAGYRLGRALAEAGFGVVTGGGPGVMEAVNRGAYEAGGVSVGLNIELPHEQKPNPYQTHALSLRYFFVRKVLFVRYAVGFVFLPGGFGTLDELSEVLVLLQTEKVHRFPVFLLDRGYWEGLVRWLAFLRDQKAVGPEDLQLFRLTDEPEEVVQALKAEAPPR", "protein production": "not failed"},
      {"sequence": "MPKLPLLLSFPLLFFASFAYADEDFVTCYSVLKFINANDGSRLHSHDVKYGSGSGQQSVTAVKNSDDINSHWQIFPALNAKCNRGDAIKCGDKIRLKHLTTGTFLHSHHFTAPLSKQHQEVSAFGSEAESDTGDDWTVICNGDEWLESEQFKLRHAVTGSYLSLSGQQFGRPIHGQREVVGTDSITGGSAWKVAEGIYIKHQQKDL", "protein production": "not failed"},
      {"sequence": "MPKLSLIIATFNDAIGLARCLDSIEQQTVRADCEVLVFDNASSDGTVELLQGWSDRLTYWESERDRGIYHAWNKAIARASGDYVAFVGADDYYASPTALQQLLELTVGQPDLVSGRNAYYSPEGKFLRTWGYAWDWQRMRESMILSHPGLLMRRSLFDRIGLFDERFRICGDYDWLLRLPPDLKAVHTNQVILCLSMGGLSNTRISRVFAETFQAQRRQPDLGRWRSGVYWLINWLKFGRRKLIGLA", "protein production": "failed"},
      {"sequence": "MPKLSVIVPTFNRQVLLEKAIKSIQNQDFKDLEIIVSDDNSSDDTKSVVQNLQKDDDRIKYFLNQNYKQGPNGNKNNGLDQASGEFVTFLDDDDELLSGALSTLMQKANEGYAHVFGNCLIEKEGNLSKEFSGKGLEKDSEISKKDFLMAKFSGEFFSVFKKSLLENKRFNEEFYGNEATLWVNLYKEKSFYIHKAFRIYRIFRQDSVTLGASKNAYRVYLGYLELAKILENELRMSKDKDYKKTCASYYKMAAYYAKLAKNYKALYKCLFKSLSIKINAPALILLILSIIPNNMIEKLSKIRVALCKN", "protein production": "failed"},
      {"sequence": "MPKTKLTSPPFKILKCTECDACINVPSILQSNEQAECPRCHHLLASGTRWSLHRCAMIALSILILMPFSLNYPLLSLHLLGIKIDASIWDGIWKMAVGGYEYTAFMIFICAVVMPITFALLVIMLWLAKIFQIKPRSVLLFLGYIKAWVMFDVYLVALGVTIFKVREYATLEINIYLIPFIFTALLTTLLFIKLNLSALWQEFYPECTSVYTKQAVELCPACHYTFTQKSIHYDHQQKICCPRCQSPLNTSDKLKLQATWATLIAGIIMLFPANLLPISGIYLTGALSEDTLISGVISFVKSGSYFVAFVVFFASIFVPISKIFIMLYLLACVHFKWQHSIKWQMRLLHLVHFVGRWSMLDLFVLALMMSLVTRGEIINFTVGPGAFYFGAAVFCTMLSTSQFDSKLIWKIYDREK", "protein production": "failed"},
      {"sequence": "MPKVNLYATFRDLTGKSQLELPGATVGEVLENLVRAYPALKEELFEGEGLAERVSVFLEGRDVRYLQGLSTPLSPGATLDLFPPVAGGGFERTFGAFPPWLLERYLEEWGGTREGEGVYRLPGAVVRFREVEPLKVGSLSIPQLRVEVEGEEAERWFERIAFAASRGGG", "protein production": "not failed"},
      {"sequence": "MPLDAPPLLPSADSDSTVSILQAKGDAPPAAATAAVGWPLLALTTWFGSGLIPLAPGTMGSIAALPFAWAIAWTWGPWALAPAAALVFVIGTLAAEAHVRRSGEKDPQRIVIDEVAGQWLTLAVAPLDPLAYGVGLVLFRICDITKPWPACWADRSVPGGFGIMLDDGFAAVYSTCMMALYVHYFM", "protein production": "failed"},
      {"sequence": "MPLDRDWIAQRIPHAGAMCLLDRVLTWDAGRLRCVAVSHLSPGNPLRAGGRLSVVCGIEYAAQATAVHGALRSAGEGEAPRSGFLVSVRDVEFHVRRLDTLDGDLVVEVECLTGDGNDALYRFRLLAADGRELLTGRLAVRLDAEAGLEHHHHHH", "protein production": "not failed"},
      {"sequence": "MPLITTETGKKMHVLEDGRKLITVIPGDGIGPECVEATLKVLEAAKAPLAYEVREAGASVFRRGIASGVPQETIESIRKTRVVLKGPLETPVGYGEKSANVTLRKLFETYANVRPVREFPNVPTPYAGRGIDLVVVRENVEDLYAGIEHMQTPSVAQTLKLISWKGSEKIVRFAFELARAEGRKKVHCATKSNIMKLAEGTLKRAFEQVAQEYPDIEAVHIIVDNAAHQLVKRPEQFEVIVTTNMNGDILSDLTSGLIGGLGFAPSANIGNEVAIFEAVHGSAPKYAGKNVINPTAVLLSAVMMLRYLEEFATADLIENALLYTLEEGRVLTGDVVGYDRGAKTTEYTEAIIQNLGKTPRKTQVRGYKPFRLPQVDGAIAPIVPRSRRVVGVDVFVETNLLPEALGKALEDLAAGTPFRLKMISNRGTQVYPPTGGLTDLVDHYRCRFLYTGEGEAKDPEILDLVSRVASRFRWMHLEKLQEFDGEPGFTKAQGED", "protein production": "not failed"},
      {"sequence": "MPLLIITTILWAFSFSLIGEYLAGQVDSWFSAMFRLTAAAVVFLPFLRWRGYAPRVIFLYMLVGACQLGIMYLFVFQAYLYLTVPEFLLFTVMTPLYVTLIYDLLARHRLRWGYVMSALLAVFGAAVIHYHGVSEHFWWGFLLVQVANVCFASGQVGYKRLMEIHPVPQHCAFSWFYLGAAIVTIAAWLLFGNMDKLPTTTLQWGVLAWLGIGASGVGYFMWNYGATQVDAGTLSIMNNFHVPAGLLVNFAIWHKTPDWLSFIVGTAIITSSLWVHQHWVVKRPLRTANDHKRADAQNE", "protein production": "failed"},
      {"sequence": "MPLLPHNRTALGFLLRHLIAGLTGGLVFGGLILALDISGLRSMLMASQDGLLYTLLLFFGLSVTFGGVAMGVGVMSLGEDKN", "protein production": "failed"},
      {"sequence": "MPLRLDIKRKLTAMSDRVKSVDLHPTEPWMLASLYNGSVCVWNHETQTLVKTFEVCDLPVRAAKFVARKNWVVTGADDMQIRVFNYNTLERVHMFEAHSDYIRCIAVHPTQPFILTSSDDMLIKLWDWDKKWSCSQVFEGHTHYVMQIVINPKDNNQFASASLDRTIKVWQLGSSSPNFTLEGHEKGVNCIDYYSGGDKPYLISGADDRLVKIWDYQNKTCVQTPEGHAQNVSCATFHPELPIIITGSEDGTVRIWHSSTYRLESTLNYGMERVWCVASLRGSNNVALGYDEGSIIVKLGREEPAMSMDANGKIIWAKHSEVQQANLKAMGDTEIKDGERLPLAVKDMGSCEIYPQTIQHNPNGRFVVVCGDGEYIIYTAMALRNKSFGSAQEFAWAHDSSEYAIRESNSVVKIFKNFKEKKSFKPDFGAESIYGGFLLGVRSVNGLAFYDWENTELIRRIEIQPKHIFWSDSGELVCIATEESFFILKYLSEKVLAAQETHEGVTEDGIEDAFEVLGEIQEIVKTGLWVGDCFIYTSSVNRLNYYVGGEIVTIAHLDRTMYLLGYIPKDNRLYLGDKELNIVSYSLLVSVLEYQTAVMRRDFSMADKVLPTIPKEQRTRVAHFLEKQGFKQQALTVSTDPEHRFELALQLGELKIAYQLAVEAESEQKWKQLAELAISKCQFSLAQECLHHAQDYGGLLLLATASGNASMVNKLAEGAERDGKNNVAFMSYFLQGKLDACLELLIRTGRLPEAAFLARTYLPSQVSRVVKLWRENLSKVNQKAAESLADPTEYENLFPGLKEAFVVEEWVKETHADLWPAKQYPLVTPNEERNVMEEAKRFQPSRATAQQEPDGKPASSPVIMASQTTHKEEKSFQELEDDLDTMELEDIDTTDINLDEDILDD", "protein production": "failed"},
      {"sequence": "MPLVLHHPERQAELGSGLRDGGGAALRPPGRLVKQMDFTEAYADTCSTVGLAAREGNVKVLRKLLKKGRSVDVADNRGWMPIHEAAYHNSVECLQMLINADSSENYIKMKTFEGFCALHLAASQGHWKIVQILLEAGADPNATTLEETTPLFLAVENGQIDVLRLLLQHGANVNGSHSMCGWNSLHQASFQENAEIIKLLLRKGANKECQDDFGITPLFVAAQYGKLESLSILISSGANVNCQALDKATPLFIAAQEGHTKCVELLLSSGADPDLYCNEDSWQLPIHAAAQMGHTKILDLLIPLTNRACDTGLNKVSPVYSAVFGGHEDCLEILLRNGYSPDAQACLVFGFSSPVCMAFQKDCEFFGIVNILLKYGAQINELHLAYCLKYEKFSIFRYFLRKGCSLGPWNHIYEFVNHAIKAQAKYKEWLPHLLVAGFDPLILLCNSWIDSVSIDTLIFTLEFTNWKTLAPAVERMLSARASNAWILQQHIATVPSLTHLCRLEIRSSLKSERLRSDSYISQLPLPRSLHNYLLYEDVLRMYEVPELAAIQDG", "protein production": "failed"}
    ]}
  ]
}
